Consider 2 molecules from US20050272633A1 (YEDA RESEARCH AND DEVELOPMENT, published 2005).

For assay [1], the target named is T1, NF-κB-inducing kinase, NIK (MAP3K14), full length (human, UniProt Q99558 1-947).
T1 construct: range 1-947; also called full length NIK; endogenous NIK
Put plainly: yeast two-hybrid.

For assay [2], the target named is T2, NIK624-947 (C-terminal domain of NIK) (human, UniProt Q99558 624-947).
T2 construct: GAL4 DNA-BD or AD fusion in the two-hybrid tests; expressed from pcdnNIK (co-IP) or pcS3MTdnNIK (reporter assay) in 293-T cells; also called C-terminus of NIK; NIK C-terminus
T2 sequence (Q99558 624-947 limits assumed): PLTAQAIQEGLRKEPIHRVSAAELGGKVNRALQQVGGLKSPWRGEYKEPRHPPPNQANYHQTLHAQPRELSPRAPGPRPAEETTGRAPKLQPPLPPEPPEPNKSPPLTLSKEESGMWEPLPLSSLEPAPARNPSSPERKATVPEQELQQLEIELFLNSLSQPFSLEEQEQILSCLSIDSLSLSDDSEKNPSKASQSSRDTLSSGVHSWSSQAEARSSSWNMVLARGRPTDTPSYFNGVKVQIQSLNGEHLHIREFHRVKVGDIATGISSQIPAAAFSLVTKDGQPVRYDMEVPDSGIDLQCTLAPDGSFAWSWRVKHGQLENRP
As to the kind of experiment: yeast two-hybrid, NIK624-947 as bait, 41 MDD as prey. From the text:
(§1) To define the domain of cγc responsible for binding NIK, deletion mutants of cγc have been created and their binding to NIK analysed (FIG. 1). The deletion mutants were created by sequentially introduction of stop codons in the cytoplasmic domain of cγc, in gaps of 10-20 amino acids. The DNA encoding the full-length cγc or its deletion mutants were introduced into the pGADT7 prey vector (Clontech) for testing their binding to NIK in the SFY526 heterologous yeast strain by the two hybrid assay. The SFY526 yeast strain is […] for TRP and Leu. pGBKT plasmids (bait vector) have the Trp1 wild type gene and pGAD has the wild type Leu2 gene. Thus, only doubly transfected yeast will grow on selective Leu Trp media. Functional GAL4 will be restored in doubly transfected yeast when the chimeric proteins fused to GAL4 domains interact, bringing the activation domain and DNA binding domain of GAL4 to close proximity. The level of LAC-Z expression is indicative of the strength of the protein-protein interaction. Lac-Z activity was assessed by the standard beta-gal/colony lift filter assay (Clontech, Yeast Protocol Handbook, Chapter VI).
(§2) The binding of 41 MDD polypeptide to full length NIK or C-terminus NIK was tested in both orientations (i.e. 41 MDD as the pray and NIK as the bait and vice versa). […]

In assay [3] the target is T1, NF-κB-inducing kinase, NIK (MAP3K14), …. As to the kind of experiment: yeast two-hybrid, NIK as bait, 41 MDD as prey.
Text: as §1, §2

T1 sequence (Q99558 whole entry): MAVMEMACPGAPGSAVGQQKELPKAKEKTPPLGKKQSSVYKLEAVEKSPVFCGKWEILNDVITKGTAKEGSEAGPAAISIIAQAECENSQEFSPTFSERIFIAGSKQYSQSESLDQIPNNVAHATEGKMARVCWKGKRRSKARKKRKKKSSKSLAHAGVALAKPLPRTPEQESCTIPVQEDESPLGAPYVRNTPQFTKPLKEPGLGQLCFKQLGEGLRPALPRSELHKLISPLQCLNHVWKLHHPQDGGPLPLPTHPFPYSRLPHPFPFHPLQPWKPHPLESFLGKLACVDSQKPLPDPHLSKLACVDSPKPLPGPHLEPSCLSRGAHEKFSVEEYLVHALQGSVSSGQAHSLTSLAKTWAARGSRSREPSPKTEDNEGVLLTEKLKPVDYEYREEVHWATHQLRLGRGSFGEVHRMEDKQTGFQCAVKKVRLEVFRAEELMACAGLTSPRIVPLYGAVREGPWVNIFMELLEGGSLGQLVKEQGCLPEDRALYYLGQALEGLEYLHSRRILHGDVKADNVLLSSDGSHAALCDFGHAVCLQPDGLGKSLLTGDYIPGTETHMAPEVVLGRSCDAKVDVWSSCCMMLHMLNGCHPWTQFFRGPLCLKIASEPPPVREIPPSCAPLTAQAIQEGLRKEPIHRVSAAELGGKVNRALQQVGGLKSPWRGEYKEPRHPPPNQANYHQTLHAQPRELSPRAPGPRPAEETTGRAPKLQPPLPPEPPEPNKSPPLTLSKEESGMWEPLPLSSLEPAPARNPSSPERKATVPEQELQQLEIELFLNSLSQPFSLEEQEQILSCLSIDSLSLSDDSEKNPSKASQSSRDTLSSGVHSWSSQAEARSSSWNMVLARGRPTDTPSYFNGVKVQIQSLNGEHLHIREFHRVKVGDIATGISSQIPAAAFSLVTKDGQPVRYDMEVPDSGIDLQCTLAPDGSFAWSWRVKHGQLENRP

B1: 44MPD (cγc membrane proximal domain, residues 282-325) (peptide)
chain: WLERTMPRIPTLKNLEDLVTEYHGNFSAWSGVSKGLAESLQPDY
notes: Two-hybrid constructs comprising intracellular fragments close to the membrane proximal domain
Turning to B1, the binding result in assay [1] is “binds”.

B2: cγc 329-369 (41 MDD polypeptide) (peptide)
chain: LCLVSEIPPKGGALGEGPGASPCNQHSPYWAPPCYTLKPET
notes: GAL4 fusion (bait or prey) in two-hybrid; also called 41 amino acid polypeptide from the membrane distal domain of cγc
In the case of B2, the binding result in assay [2] and in assay [3] was “binds” in each case.
